In assay [1] the target is skeletal muscle actin, filamentous (F-actin) (rabbit) (UniProt P68135).
Assay [2] addresses GFP-myosin-7a holoenzyme (full-length, Drosophila) (Drosophila) (UniProt Q9V3Z6). Nature of the assay: BLI; Octet RED96; GFP-myosin-7a held by biotinylated GFP antibody on streptavidin sensors; 0-25 nM M7BP in solution; 150 mM NaCl, 2 mM MgCl2, 0.1 mM EGTA, 10 mM MOPS, 1% BSA, pH 7.2; 30 C; no actin. For orientation: In BLI a coated tip is dipped into the sample, and binding shifts an interference pattern.

Assay [3] has as its target full-length myosin-7a holoenzyme (Drosophila), FLAG-tagged (Drosophila) (UniProt Q9V3Z6). Nature of the assay: single-molecule mass photometry; 20 nM myosin-7a or M7BP alone, or 20 nM M7BP with 10 nM myosin-7a; 150 mM NaCl, 2 mM MgCl2, 0.1 mM EGTA, 10 mM MOPS, pH 7.2; about 24 C; no actin.
For assay [4], the target named is myosin-7a heavy chain (Drosophila), FLAG-tagged, co-expressed with light chains (Drosophila) (UniProt Q9V3Z6). Nature of the assay: co-purification (FLAG affinity chromatography) with SDS-PAGE densitometry; heavy chain and light chains co-expressed in Sf9; heavy chain captured by its FLAG tag; 150 mM NaCl, 2 mM ATP washes.
Assay [5] has as its target GFP-myosin-7a holoenzyme (full-length, Drosophila) (Drosophila) (UniProt Q9V3Z6). Nature of the assay: single-molecule TIRF motility assay; 20 nM myosin-7a with 20 nM M7BP on surface-immobilised phalloidin-labelled actin filaments; 150 mM KCl, 20 mM MOPS, 5 mM MgCl2, 0.1 mM EGTA, 2 mM ATP, pH 7.4; co-movement and fluorophore counting of moving puncta.

The Kd is the concentration at which binding is half-saturated. A higher Kd goes with a looser complex. The stoichiometry N is a count of units in the complex or per binding partner. Turning to “M7BP (myosin-7a binding protein), protein isoform C of CG43340, full length (natural protein)”, in assay [1], the decrease in actin gliding velocity over surface-bound myosin-7a after infusion of 500 nM M7BP, 150 mM KCl is 50%. The Kd in assay [2] worked out at 6 nM. Also, the stoichiometry N in assay [3] turned out to be 1.
In the case of “Drosophila calmodulin (from UniProt P62152 1-149) (natural protein)”, the stoichiometric ratio of strongly bound calmodulin to ELC/Mlc-c on the heavy chain in assay [4] was 4.
The substance M7BP-mCherry (natural protein) gave a stoichiometry N in assay [5] of 1.

Values taken from publication PMC7835385.
